8 molecules from patent US20240059799A1 (Pfizer, published 2024) can be followed below.

Where a chain is given by its changes, count along the chain named.

T1: human IL-23 (human, UniProt P29460 23-328; Q9NPF7 20-189)
T1 construct: Heterodimer p40/p19; Whole entries as named; also called IL-23 Human; recombinant human IL-23
T1 sequence 1: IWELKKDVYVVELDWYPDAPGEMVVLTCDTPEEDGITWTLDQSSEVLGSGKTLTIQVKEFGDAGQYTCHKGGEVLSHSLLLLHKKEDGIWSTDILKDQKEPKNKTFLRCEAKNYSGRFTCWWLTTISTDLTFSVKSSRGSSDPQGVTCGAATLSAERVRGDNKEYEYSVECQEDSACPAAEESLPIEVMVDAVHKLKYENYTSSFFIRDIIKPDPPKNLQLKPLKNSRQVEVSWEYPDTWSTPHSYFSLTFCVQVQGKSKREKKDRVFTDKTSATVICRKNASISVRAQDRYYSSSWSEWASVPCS
T1 sequence 2: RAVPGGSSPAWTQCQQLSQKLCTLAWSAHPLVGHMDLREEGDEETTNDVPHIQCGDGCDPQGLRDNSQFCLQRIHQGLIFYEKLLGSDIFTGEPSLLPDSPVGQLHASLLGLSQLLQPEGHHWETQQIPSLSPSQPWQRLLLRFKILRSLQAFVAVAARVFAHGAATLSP

T2: human IL-23 (human, UniProt P29460 23-328; Q9NPF7 20-189)
T2 sequence 1: T1 sequence 1
T2 sequence 2: T1 sequence 2

T3: human IL-12 (human, UniProt P29460 23-328; P29459 23-219)
T3 sequence 1: T1 sequence 1
T3 sequence 2: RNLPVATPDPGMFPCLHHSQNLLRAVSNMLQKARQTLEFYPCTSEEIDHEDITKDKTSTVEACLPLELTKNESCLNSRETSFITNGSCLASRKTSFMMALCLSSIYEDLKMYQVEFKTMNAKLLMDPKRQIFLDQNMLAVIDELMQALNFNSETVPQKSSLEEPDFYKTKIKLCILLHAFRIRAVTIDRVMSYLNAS

T4: recombinant human TL1A (human, UniProt O95150 71-251)
T4 chain: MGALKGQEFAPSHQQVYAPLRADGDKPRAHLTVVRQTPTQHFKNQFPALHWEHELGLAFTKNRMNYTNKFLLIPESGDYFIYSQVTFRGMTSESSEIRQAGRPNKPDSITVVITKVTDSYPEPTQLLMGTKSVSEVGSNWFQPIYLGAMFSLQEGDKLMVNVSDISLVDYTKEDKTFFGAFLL

T5: recombinant human TL1A (human, UniProt O95150 71-251)
T5 construct: Homotrimeric cytokine; biotinylated with Sulfo-NHS-biotin where captured for SPR, coated unlabelled in ELISA, soluble in bioassays; also called TNFSF15
T5 chain: T4 chain

B1: p40TL1A-0033 (bispecific antibody, human IgG1, kappa)
heavy: EVQLVQSGAEVKKPGESLKISCKGSGYSFTTYWLGWVRQMPGKGLDWIGIMSPVDSDIRYSPSFQGQVTMSVDKSITTAYLQWNSLKASDTAMYYCARRRPGQGYFDFWGQGTLVTVSSASTKGPSVFPLAPSSKSTSGGTAALGCLVKDYFPEPVTVSWNSGALTSGVHTFPAVLQSSGLYSLSSVVTVPSSSLGTQTYICNVNHKPSNTKVDKKVEPKSCDKTHTCPPCPAPEAAGAPSVFLFPPKPKDTLMISRTPEVTCVVVDVSHEDPEVKFNWYVDGVEVHNAKTKPREEQYNSTYRVVSVLTVLHQDWLNGKEYKCKVSNKALPAPIEKTISKAKGQPREPQVCTLPPSREEMTKNQVSLWCLVKGFYPSDIAVEWESNGQPENNYKTTPPVLDSDGSFFLYSKLTVDKSRWQQGNVFSCSVLHEALHSHYTQKSLSLSPGK
light: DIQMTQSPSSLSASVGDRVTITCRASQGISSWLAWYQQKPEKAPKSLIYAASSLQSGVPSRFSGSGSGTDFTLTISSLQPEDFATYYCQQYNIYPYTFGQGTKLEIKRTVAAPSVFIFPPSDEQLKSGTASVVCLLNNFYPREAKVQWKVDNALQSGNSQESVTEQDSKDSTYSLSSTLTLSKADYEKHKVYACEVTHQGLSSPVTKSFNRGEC
chain 1: not shown
chain 2: QVQLVQSGAEVKKPGASVKVSCKASGYDYTYYGISWVRQAPGQGLEWMGWISTYNTGTHYAPSLQGRVTMTTDTSTSTAYMELRSLRSDDTAVYYCARESYYGSGAFRGGMDVWGQGTTVTVSSASTKGPSVFPLAPSSKSTSGGTAALGCLVKDYFPEPVTVSWNSGALTSGVHTFPAVLQSSGLYSLSSVVTVPSSSLGTQTYICNVNHKPSNTKVDKKVEPKSC
notes: single cell, KiH, modified Fd, LS
B2: p40TL1A-0024 (bispecific antibody, human IgG1, kappa)
heavy 1: B1 heavy with C351Y, W368T, K411R
light 1: not shown
heavy 2: QVQLVQSGAEVKKPGASVKVSCKASGYDYTYYGISWVRQAPGQGLEWMGWISTYNTGTHYAPSLQGRVTMTTDTSTSTAYMELRSLRSDDTAVYYCARESYYGSGAFRGGMDVWGQGTTVTVSSASTKGPSVFPLAPSSKSTSGGTAALGCLVKDYFPEPVTVSWNSGALTSGVHTFPAVLQSSGLYSLSSVVTVPSSSLGTQTYICNVNHKPSNTKVDKKVEPKSCDKTHTCPPCPAPEAAGAPSVFLFPPKPKDTLMISRTPEVTCVVVDVSHEDPEVKFNWYVDGVEVHNAKTKPREEQYNSTYRVVSVLTVLHQDWLNGKEYKCKVSNKALPAPIEKTISKAKGQPREPQVYTLPPSREEMTKNQVSLTCEVKGFYPSDIAVEWESNGQPENNYKTTPPVLDSDGSFFLYSKLTVDKSRWQQGNVFSCSVLHEALHSHYTQKSLSLSPGK
light 2: not shown
notes: dual cell, E/R, LS
B3: p40TL1A-0032 (bispecific antibody)
heavy 1: B1 heavy with L130K, V187S
light 1: DIQMTQSPSSLSASVGDRVTITCRASQGISSWLAWYQQKPEKAPKSLIYAASSLQSGVPSRFSGSGSGTDFTLTISSLQPEDFATYYCQQYNIYPYTFGQGTKLEIKRTVAAPSVFIFPPSDEQLKSGTASVSCLLNNFYPREAKVQWKVDNALQSGNSQESVTEQDSKDSTYSLDSTLTLSKADYEKHKVYACEVTHQGLSSPVTKSFNRGEC
heavy 2: B2 heavy 2 with L135E, S190G, S361C, T373S, E375A, Y414V
light 2: not shown
notes: single cell, KiH, S1-S1rev, LS
B4: p40TL1A-0021 (bispecific antibody)
heavy 1: B1 heavy with D223R, C351Y, W368T, K411R
light 1: not shown
heavy 2: B2 heavy 2 with D228E
light 2: not shown
notes: dual cell, EE/RR, LS
B5: p40TL1A-0018 (bispecific antibody, human IgG1, kappa)
heavy 1: B1 heavy with C351Y
light 1: not shown
heavy 2: B2 heavy 2 with T373S, E375A, Y414V
light 2: not shown
notes: dual cell, KiH without Cys in CH3, LS
B6: p40TL1A-0001 (bispecific antibody)
heavy 1: B1 heavy with D223R, P230R, C351Y, W368T, K411R
light 1: not shown
heavy 2: B2 heavy 2 with D228E, P235E
light 2: not shown
notes: dual cell, EEE/RRR, LS
B7: p40-0003 antibody (antibody, human IgG1, kappa, V domains shown)
VH: EVQLVQSGAEVKKPGESLKISCKGSGYSFTTYWLGWVRQMPGKGLDWIGIMSPVDSDIRYSPSFQGQVTMSVDKSITTAYLQWNSLKASDTAMYYCARRRPGQGYFDFWGQGTLVTVSS
VL: DIQMTQSPSSLSASVGDRVTITCRASQGISSWLAWYQQKPEKAPKSLIYAASSLQSGVPSRFSGSGSGTDFTLTISSLQPEDFATYYCQQYNIYPYTFGQGTKLEIKR
B8: TL1A-0372 monovalent bispecific antibody (bispecific antibody, human IgG1, kappa)
heavy 1: B2 heavy 2 with Y356C, T373W, E375L
heavy 2: not shown
light: not shown

The first experiment has as its target T1, human IL-23. Nature of the experiment: SPR 37 C, bispecific captured by anti-human Fc, human IL-23 injected. The method, then: (§1) SPR was utilized to determine if the affinity constants of each arm of the bispecific variants binding human IL-23, containing the p40 subunit, and human TL1A were the same for each bispecific approach. For the analysis of the p40 binding arm, kinetic assays were conducted at 37° C. using a collection rate of 10 Hz on a Biacore™ 8 K+ instrument (GE Healthcare). An anti-human IgG antibody (anti-human Fc, GE Healthcare, 22-0648-88) was amine coupled to all four flow cells of a carboxymethylated dextran coated sensor chip (GE Healthcare,) using the manufacturer's recommended protocol. […] For the analysis of the TL1A binding arm, kinetic assays were conducted at 37° C. using a collection rate of 10 Hz on a Biacore™ T200 instrument (GE Healthcare).
The term Kd denotes the concentration at which binding is half-saturated. The term koff denotes the first-order rate constant of dissociation. By kon is commonly meant the second-order rate constant of association. B1 showed a Kd of 0.557 nM, a koff of 0.00115 s⁻¹ and a kon of 2.07e+06 M⁻¹ s⁻¹.
The like results for B2 were, in that order, 0.9 nM, 0.00157 s⁻¹ and 1.75e+06 M⁻¹ s⁻¹.
Molecule B3 registered a Kd of 0.567 nM, a dissociation rate constant (koff) of 0.00109 s⁻¹ and a kon of 1.92e+06 M⁻¹ s⁻¹.
The molecule B4 registered a Kd of 0.859 nM, an off-rate constant (koff) of 0.00152 s⁻¹ and a kon of 1.77e+06 M⁻¹ s⁻¹.
B5 had a dissociation constant (Kd) of 0.659 nM, a koff of 0.00121 s⁻¹ and an on-rate constant (kon) of 1.83e+06 M⁻¹ s⁻¹.
B6 returned a Kd of 0.901 nM, a koff of 0.00156 s⁻¹ and a kon of 1.73e+06 M⁻¹ s⁻¹.

For a further experiment, the target named is T2, human IL-23. Nature of the experiment: cell-based or functional assay.
B7: the “KIT-225 STAT3 assay IL-23, Bioactivity relative to p40-0003” value amounted to 1 fold and the “KIT-225 STAT3 assay IL-23 IC50” value came to 1.6 nM.

Another experiment concerns the target T3, human IL-12. Nature of the experiment: cell-based or functional assay.
With B7, the “KIT-225 STAT4 assay IL-12, Bioactivity relative to p40-0003” value worked out at 1 fold and the “KIT-225 STAT4 assay IL-12 IC50” value was 3.3 nM.

The next experiment addresses T4, recombinant human TL1A. Nature of the experiment: cell-based or functional assay.
For the molecule B8, the “NF-κB assay IC50 (TF-1 reporter cells)” value was determined as 102 pM and the “NF-κB assay, Bioactivity relative to TL1A-0372” value is 1 fold.

For a further experiment, the target named is T5, recombinant human TL1A. Nature of the experiment: SPR 37 C, biotinylated human TL1A captured, bispecific injected. As for the experimental part:
as §1
As for B1, the Kd was 0.253 nM, the off-rate (koff) was 5.52e-05 s⁻¹ and the kon turned out to be 218000 M⁻¹ s⁻¹.
B2: the Kd turned out to be 0.273 nM, the koff came out at 5.99e-05 s⁻¹ and the kon amounted to 219000 M⁻¹ s⁻¹.
As to B3, the equilibrium dissociation constant (Kd) amounted to 0.254 nM, the koff is 6.15e-05 s⁻¹ and the kon was 243000 M⁻¹ s⁻¹.
With B4, the Kd was 0.183 nM, the koff was 5.6e-05 s⁻¹ and the kon turned out to be 307000 M⁻¹ s⁻¹.
For the molecule B5, the equilibrium dissociation constant (Kd) was found to be 0.217 nM, the dissociation rate constant (koff) worked out at 4.87e-05 s⁻¹ and the kon is 224000 M⁻¹ s⁻¹.
As to B6, the Kd was 0.167 nM, the off-rate (koff) amounted to 4.28e-05 s⁻¹ and the kon came out at 256000 M⁻¹ s⁻¹.

A further experiment has as its target T1, human IL-23. Nature of the experiment: SPR, bispecific held on captured biotinylated human TL1A, then human IL-23 injected (simultaneous binding). As for the experimental part:
SPR was used to determine if the bispecific variants could simultaneously bind TL1A and IL-23, containing the p40 domain. For this analysis, a semi-quantitative SPR method was developed using Biacore™ T200 (GE Healthcare) instrumentation. […] The bispecific was injected for 90 seconds at a concentration of 20 μg/m L, a flow rate of 50 μL/minute, and captured to a level of approximately 40-150 RU. Next, recombinant human IL-23 was injected for 60 seconds and a flow rate of 50 μL/minute at a concentration range of 0.37-15 nM.
(SPR reads the build-up and loss of mass on a sensor chip optically.)
As for B1, the Kd worked out at 0.0791 nM, the off-rate (koff) came out at 0.000519 s⁻¹ and the kon was determined as 6.56e+06 M⁻¹ s⁻¹.
Regarding B2, the Kd amounted to 0.107 nM, the koff turned out to be 0.000571 s⁻¹ and the kon was found to be 5.32e+06 M⁻¹ s⁻¹.
B3 showed a Kd of 0.0788 nM, a dissociation rate constant (koff) of 0.000546 s⁻¹ and a kon of 6.93e+06 M⁻¹ s⁻¹.
B4 gave a Kd of 0.0738 nM, a koff of 0.000524 s⁻¹ and a kon of 7.11e+06 M⁻¹ s⁻¹.
In the case of B5, the affinity, expressed as Kd, was 0.0944 nM; the koff was 0.000521 s⁻¹; the association rate constant (kon) was 5.51e+06 M⁻¹ s⁻¹.
As for B6, the equilibrium dissociation constant (Kd) was 0.09 nM, the koff is 0.000584 s⁻¹ and the kon stood at 5.98e+06 M⁻¹ s⁻¹.
